Assay [1] has as its target dimethylcasein.
In assay [2] the target is dimethylcasein. This is another data set of the same source.
Assay [3] addresses dimethylcasein. The source holds these as a separate data set.

Relative Activity (14C-putrescine bonded to dimethylcasein, 37° C., 30 minutes) (relative activity), TG activity (dpm) (14C-putrescine caught by dimethylcasein) and relative TG activity (14C-putrescine bonded to dimethylcasein, 37° C., pH 7.5) (dpm/mg/30 min) data for three molecules are collected here from patent US5731183.

Molecule “Bacillus subtilis AJ12866-derived transglutaminase (enzyme)” gave a Relative Activity (14C-putrescine bonded to dimethylcasein, 37° C., 30 minutes) (relative activity) with dimethylcasein [1] of 10200. As to “fused protein of an 11-residue lacZ-derived peptide and the Bacillus-derived TG, expressed from pBSTG75-11 in Escherichia coli JM109 (enzyme)”, the TG activity (dpm) (14C-putrescine caught by dimethylcasein) with dimethylcasein [2] amounted to 496 dpm.

B1: Bacillus subtilis AJ1307-derived transglutaminase (enzyme)
chain: MIIVSGQLLRPQDIENWQIDQNLNPLLKEMIETPVQFDYHSIAELMFELKLRMNIVAAAKTLHKSGAKFATFLKTYGNTTYWRVSPEGALELKYRMPPSKAIRDIAENGPFYAFECATAIVIIYYLALIDTIGEDKFNASFDRIILYDWHYEKLPIYTETGHHFFLGDCLYFKNPEFDPQKAQWRGENVILLGEDKYFAHGLGILNGKQIIDKLNSFRKKGALQSAYLLSQATRLDVPSLFR
Molecule B1 had a relative TG activity (14C-putrescine bonded to dimethylcasein, 37° C., pH 7.5) (dpm/mg/30 min) with dimethylcasein [3] of 25000.
